Measured values published in ChEMBL document CHEMBL1156468, “Crystal structures of Saccharomyces cerevisiae N-myristoyltransferase with bound myristoyl-CoA and inhibitors reveal the functional roles of the N-terminal region” (J Biol Chem, 2007).
Numbering of substitutions follows the chain as printed. Numbers in names are those of the source.

Tests used:
[1] = target: T1, Glycylpeptide N-tetradecanoyltransferase (Saccharomyces cerevisiae S288c, UniProt P14743); assay: Inhibition of Saccharomyces cerevisiae NMT
T1 sequence (P14743 whole entry): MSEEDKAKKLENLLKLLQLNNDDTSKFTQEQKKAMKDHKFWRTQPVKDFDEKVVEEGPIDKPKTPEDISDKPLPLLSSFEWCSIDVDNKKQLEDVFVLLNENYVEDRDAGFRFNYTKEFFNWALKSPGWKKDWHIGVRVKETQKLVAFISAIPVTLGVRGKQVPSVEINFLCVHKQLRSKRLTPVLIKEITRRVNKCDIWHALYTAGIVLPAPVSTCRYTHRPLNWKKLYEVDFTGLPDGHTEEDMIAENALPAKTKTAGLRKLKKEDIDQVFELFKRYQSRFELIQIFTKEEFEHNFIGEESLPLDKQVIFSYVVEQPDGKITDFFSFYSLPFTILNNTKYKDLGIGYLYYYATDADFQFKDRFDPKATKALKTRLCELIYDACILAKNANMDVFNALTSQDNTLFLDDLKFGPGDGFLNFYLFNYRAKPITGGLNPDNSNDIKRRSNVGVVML

Saccharomyces cerevisiae [2] = assay: Ratio of kcat to Km for Saccharomyces cerevisiae NMT D22K/D23K mutant
Saccharomyces cerevisiae [3] = assay: Activity of Saccharomyces cerevisiae NMT NMT delta1-40 mutant assessed as production of coenzyme A after 1 hr
Saccharomyces cerevisiae [4] = assay: Activity of Saccharomyces cerevisiae NMT NMT delta1-20 mutant assessed as production of coenzyme A after 1 hr
Saccharomyces cerevisiae [5] = assay: Activity of Saccharomyces cerevisiae NMT NMT delta1-30 mutant assessed as production of coenzyme A after 1 hr
Saccharomyces cerevisiae [6] = assay: Activity of Saccharomyces cerevisiae NMT D22K/D23K mutant assessed as production of coenzyme A after 1 hr
Saccharomyces cerevisiae [7] = assay: Ratio of kcat to Km for Saccharomyces cerevisiae NMT delta1-40 mutant
Saccharomyces cerevisiae [8] = assay: Ratio of kcat to Km for Saccharomyces cerevisiae NMT delta1-30 mutant
Saccharomyces cerevisiae [9] = assay: Ratio of kcat to Km for Saccharomyces cerevisiae NMT delta1-20 mutant
[10] = substrate: CC(C)C[C@H](NC(=O)CN)C(=O)N[C@@H](Cc1ccccc1)C(=O)N[C@@H](C)C(=O)N[C@@H](CO)C(=O)N[C@@H](CCCCN)C(=O)N[C@@H](CC(C)C)C(=O)N[C@@H](Cc1ccccc1)C(=O)O; assay: Ratio of kcat to Km for Saccharomyces cerevisiae wild type NMT
[11] = substrate: CC(C)C[C@H](NC(=O)CN)C(=O)N[C@@H](Cc1ccccc1)C(=O)N[C@@H](C)C(=O)N[C@@H](CO)C(=O)N[C@@H](CCCCN)C(=O)N[C@@H](CC(C)C)C(=O)N[C@@H](Cc1ccccc1)C(=O)O; assay: Activity of Saccharomyces cerevisiae wild type NMT assessed as production of coenzyme A after 1 hr
[12] = substrate: CC(C)C[C@H](NC(=O)CN)C(=O)N[C@@H](Cc1ccccc1)C(=O)N[C@@H](C)C(=O)N[C@@H](CO)C(=O)N[C@@H](CCCCN)C(=O)N[C@@H](CC(C)C)C(=O)N[C@@H](Cc1ccccc1)C(=O)O; assay: Ratio of kcat to Km for Saccharomyces cerevisiae NMT D108K mutant
[13] = substrate: CC(C)C[C@H](NC(=O)CN)C(=O)N[C@@H](Cc1ccccc1)C(=O)N[C@@H](C)C(=O)N[C@@H](CO)C(=O)N[C@@H](CCCCN)C(=O)N[C@@H](CC(C)C)C(=O)N[C@@H](Cc1ccccc1)C(=O)O; assay: Activity of Saccharomyces cerevisiae NMT D108K mutant assessed as production of coenzyme A after 1 hr
[14] = substrate: CC(C)C[C@H](NC(=O)CN)C(=O)N[C@@H](Cc1ccccc1)C(=O)N[C@@H](C)C(=O)N[C@@H](CO)C(=O)N[C@@H](CCCCN)C(=O)N[C@@H](CC(C)C)C(=O)N[C@@H](Cc1ccccc1)C(=O)O; assay: Activity of Saccharomyces cerevisiae NMT D23K mutant assessed as production of coenzyme A after 1 hr
[15] = substrate: CC(C)C[C@H](NC(=O)CN)C(=O)N[C@@H](Cc1ccccc1)C(=O)N[C@@H](C)C(=O)N[C@@H](CO)C(=O)N[C@@H](CCCCN)C(=O)N[C@@H](CC(C)C)C(=O)N[C@@H](Cc1ccccc1)C(=O)O; assay: Ratio of kcat to Km for Saccharomyces cerevisiae NMT D23K mutant
[16] = substrate: CC(C)C[C@H](NC(=O)CN)C(=O)N[C@@H](Cc1ccccc1)C(=O)N[C@@H](C)C(=O)N[C@@H](CO)C(=O)N[C@@H](CCCCN)C(=O)N[C@@H](CC(C)C)C(=O)N[C@@H](Cc1ccccc1)C(=O)O; assay: Ratio of kcat to Km for Saccharomyces cerevisiae NMT T24D mutant
[17] = substrate: CC(C)C[C@H](NC(=O)CN)C(=O)N[C@@H](Cc1ccccc1)C(=O)N[C@@H](C)C(=O)N[C@@H](CO)C(=O)N[C@@H](CCCCN)C(=O)N[C@@H](CC(C)C)C(=O)N[C@@H](Cc1ccccc1)C(=O)O; assay: Activity of Saccharomyces cerevisiae NMT T24D mutant assessed as production of coenzyme A after 1 hr
[18] = substrate: CC(C)C[C@H](NC(=O)CN)C(=O)N[C@@H](Cc1ccccc1)C(=O)N[C@@H](C)C(=O)N[C@@H](CO)C(=O)N[C@@H](CCCCN)C(=O)N[C@@H](CC(C)C)C(=O)N[C@@H](Cc1ccccc1)C(=O)O; assay: Ratio of kcat to Km for Saccharomyces cerevisiae NMT D106A/D108A mutant
[19] = substrate: CC(C)C[C@H](NC(=O)CN)C(=O)N[C@@H](Cc1ccccc1)C(=O)N[C@@H](C)C(=O)N[C@@H](CO)C(=O)N[C@@H](CCCCN)C(=O)N[C@@H](CC(C)C)C(=O)N[C@@H](Cc1ccccc1)C(=O)O; assay: Activity of Saccharomyces cerevisiae NMT D106A/D108A mutant assessed as production of coenzyme A after 1 hr
[20] = substrate: CC(C)C[C@H](NC(=O)CN)C(=O)N[C@@H](Cc1ccccc1)C(=O)N[C@@H](C)C(=O)N[C@@H](CO)C(=O)N[C@@H](CCCCN)C(=O)N[C@@H](CC(C)C)C(=O)N[C@@H](Cc1ccccc1)C(=O)O; assay: Ratio of kcat to Km for Saccharomyces cerevisiae NMT D108A mutant
[21] = substrate: CC(C)C[C@H](NC(=O)CN)C(=O)N[C@@H](Cc1ccccc1)C(=O)N[C@@H](C)C(=O)N[C@@H](CO)C(=O)N[C@@H](CCCCN)C(=O)N[C@@H](CC(C)C)C(=O)N[C@@H](Cc1ccccc1)C(=O)O; assay: Activity of Saccharomyces cerevisiae NMT D108A mutant assessed as production of coenzyme A after 1 hr
[22] = substrate: CC(C)C[C@H](NC(=O)CN)C(=O)N[C@@H](Cc1ccccc1)C(=O)N[C@@H](C)C(=O)N[C@@H](CO)C(=O)N[C@@H](CCCCN)C(=O)N[C@@H](CC(C)C)C(=O)N[C@@H](Cc1ccccc1)C(=O)O; assay: Ratio of kcat to Km for Saccharomyces cerevisiae NMT D23A mutant
[23] = substrate: CC(C)C[C@H](NC(=O)CN)C(=O)N[C@@H](Cc1ccccc1)C(=O)N[C@@H](C)C(=O)N[C@@H](CO)C(=O)N[C@@H](CCCCN)C(=O)N[C@@H](CC(C)C)C(=O)N[C@@H](Cc1ccccc1)C(=O)O; assay: Activity of Saccharomyces cerevisiae NMT D23A mutant assessed as production of coenzyme A after 1 hr
[24] = substrate: CC(C)C[C@H](NC(=O)CN)C(=O)N[C@@H](Cc1ccccc1)C(=O)N[C@@H](C)C(=O)N[C@@H](CO)C(=O)N[C@@H](CCCCN)C(=O)N[C@@H](CC(C)C)C(=O)N[C@@H](Cc1ccccc1)C(=O)O; assay: Ratio of kcat to Km for Saccharomyces cerevisiae NMT D106K mutant
[25] = substrate: CC(C)C[C@H](NC(=O)CN)C(=O)N[C@@H](Cc1ccccc1)C(=O)N[C@@H](C)C(=O)N[C@@H](CO)C(=O)N[C@@H](CCCCN)C(=O)N[C@@H](CC(C)C)C(=O)N[C@@H](Cc1ccccc1)C(=O)O; assay: Activity of Saccharomyces cerevisiae NMT D106K mutant assessed as production of coenzyme A after 1 hr
[26] = substrate: CC(C)C[C@H](NC(=O)CN)C(=O)N[C@@H](Cc1ccccc1)C(=O)N[C@@H](C)C(=O)N[C@@H](CO)C(=O)N[C@@H](CCCCN)C(=O)N[C@@H](CC(C)C)C(=O)N[C@@H](Cc1ccccc1)C(=O)O; assay: Ratio of kcat to Km for Saccharomyces cerevisiae NMT D22K mutant
[27] = substrate: CC(C)C[C@H](NC(=O)CN)C(=O)N[C@@H](Cc1ccccc1)C(=O)N[C@@H](C)C(=O)N[C@@H](CO)C(=O)N[C@@H](CCCCN)C(=O)N[C@@H](CC(C)C)C(=O)N[C@@H](Cc1ccccc1)C(=O)O; assay: Activity of Saccharomyces cerevisiae NMT D22K mutant assessed as production of coenzyme A after 1 hr
[28] = substrate: CC(C)C[C@H](NC(=O)CN)C(=O)N[C@@H](Cc1ccccc1)C(=O)N[C@@H](C)C(=O)N[C@@H](CO)C(=O)N[C@@H](CCCCN)C(=O)N[C@@H](CC(C)C)C(=O)N[C@@H](Cc1ccccc1)C(=O)O; assay: Activity of Saccharomyces cerevisiae NMT D22A mutant assessed as production of coenzyme A after 1 hr
[29] = substrate: CC(C)C[C@H](NC(=O)CN)C(=O)N[C@@H](Cc1ccccc1)C(=O)N[C@@H](C)C(=O)N[C@@H](CO)C(=O)N[C@@H](CCCCN)C(=O)N[C@@H](CC(C)C)C(=O)N[C@@H](Cc1ccccc1)C(=O)O; assay: Ratio of kcat to Km for Saccharomyces cerevisiae NMT D22A mutant
[30] = substrate: CC(C)C[C@H](NC(=O)CN)C(=O)N[C@@H](Cc1ccccc1)C(=O)N[C@@H](C)C(=O)N[C@@H](CO)C(=O)N[C@@H](CCCCN)C(=O)N[C@@H](CC(C)C)C(=O)N[C@@H](Cc1ccccc1)C(=O)O; assay: Ratio of kcat to Km for Saccharomyces cerevisiae NMT D22A/D23A mutant
[31] = substrate: CC(C)C[C@H](NC(=O)CN)C(=O)N[C@@H](Cc1ccccc1)C(=O)N[C@@H](C)C(=O)N[C@@H](CO)C(=O)N[C@@H](CCCCN)C(=O)N[C@@H](CC(C)C)C(=O)N[C@@H](Cc1ccccc1)C(=O)O; assay: Activity of Saccharomyces cerevisiae NMT D22A/D23A mutant assessed as production of coenzyme A after 1 hr

CCCCCCCCCCCCCC(=O)CSCCNC(=O)CCNC(=O)C(O)C(C)(C)COP(=O)(O)OP(=O)(O)OC[C@H]1O[C@@H](n2cnc3c(N)ncnc32)[C@H](O)[C@@H]1OP(=O)(O)O (some centres not stated)
IC50 [1]: 50 nM

Cc1nccn1CCCCc1ccc(CC(=O)N[C@@H](CO)C(=O)N[C@@H](CCCCN)C(=O)NCCC2CCCCC2)cc1 [SC-58272]
IC50 [1]: 24 nM

H-GLFASKLF-OH
kcat/Km (Saccharomyces cerevisiae [2]): 3.16 ×10⁴ /M/s
Km (Saccharomyces cerevisiae [3]): 162 µM
kcat (Saccharomyces cerevisiae [3]): 4.03 s⁻¹
Km (Saccharomyces cerevisiae [4]): 27.7 µM
kcat (Saccharomyces cerevisiae [4]): 3.58 s⁻¹
Km (Saccharomyces cerevisiae [5]): 159 µM
kcat (Saccharomyces cerevisiae [5]): 3.85 s⁻¹
Km (Saccharomyces cerevisiae [6]): 150 µM
kcat (Saccharomyces cerevisiae [6]): 4.73 s⁻¹
kcat/Km (Saccharomyces cerevisiae [7]): 2.48 ×10⁴ /M/s
kcat/Km (Saccharomyces cerevisiae [8]): 2.43 ×10⁴ /M/s
kcat/Km (Saccharomyces cerevisiae [9]): 1.29 ×10⁵ /M/s

B1: Glycylpeptide N-tetradecanoyltransferase (Saccharomyces cerevisiae S288c), P14743 (protein)
chain: T1 sequence (P14743 whole entry)
kcat/Km [10]: 2.24 ×10⁵ /M/s
Km [11]: 13.7 µM
kcat [11]: 3.06 s⁻¹

B2: Glycylpeptide N-tetradecanoyltransferase (Saccharomyces cerevisiae S288c), P14743 D108K (protein)
chain: T1 sequence (P14743 whole entry) with D108K
kcat/Km [12]: 1.4 ×10⁵ /M/s
Km [13]: 13.9 µM
kcat [13]: 1.94 s⁻¹

B3: Glycylpeptide N-tetradecanoyltransferase (Saccharomyces cerevisiae S288c), P14743 D23K (protein)
chain: T1 sequence (P14743 whole entry) with D23K
Km [14]: 50.2 µM
kcat [14]: 3.64 s⁻¹
kcat/Km [15]: 7.26 ×10⁴ /M/s

B4: Glycylpeptide N-tetradecanoyltransferase (Saccharomyces cerevisiae S288c), P14743 T24D (protein)
chain: T1 sequence (P14743 whole entry) with T24D
kcat/Km [16]: 6.67 ×10⁴ /M/s
Km [17]: 41.6 µM
kcat [17]: 2.77 s⁻¹

B5: Glycylpeptide N-tetradecanoyltransferase (Saccharomyces cerevisiae S288c), P14743 D106A,D108A (protein)
chain: T1 sequence (P14743 whole entry) with D106A, D108A
kcat/Km [18]: 6.62 ×10⁴ /M/s
Km [19]: 38.5 µM
kcat [19]: 2.55 s⁻¹

B6: Glycylpeptide N-tetradecanoyltransferase (Saccharomyces cerevisiae S288c), P14743 D108A (protein)
chain: T1 sequence (P14743 whole entry) with D108A
kcat/Km [20]: 2.45 ×10⁵ /M/s
Km [21]: 7.89 µM
kcat [21]: 1.94 s⁻¹

B7: Glycylpeptide N-tetradecanoyltransferase (Saccharomyces cerevisiae S288c), P14743 D23A (protein)
chain: T1 sequence (P14743 whole entry) with D23A
kcat/Km [22]: 1.27 ×10⁵ /M/s
Km [23]: 21.4 µM
kcat [23]: 2.71 s⁻¹

B8: Glycylpeptide N-tetradecanoyltransferase (Saccharomyces cerevisiae S288c), P14743 D106K (protein)
chain: T1 sequence (P14743 whole entry) with D106K
kcat/Km [24]: 8.65 ×10⁴ /M/s
Km [25]: 30.6 µM
kcat [25]: 2.65 s⁻¹

B9: Glycylpeptide N-tetradecanoyltransferase (Saccharomyces cerevisiae S288c), P14743 D22K (protein)
chain: T1 sequence (P14743 whole entry) with D22K
kcat/Km [26]: 1.05 ×10⁵ /M/s
Km [27]: 23.8 µM
kcat [27]: 2.5 s⁻¹

B10: Glycylpeptide N-tetradecanoyltransferase (Saccharomyces cerevisiae S288c), P14743 D22A (protein)
chain: T1 sequence (P14743 whole entry) with D22A
Km [28]: 19 µM
kcat [28]: 1.72 s⁻¹
kcat/Km [29]: 9.03 ×10⁴ /M/s

B11: Glycylpeptide N-tetradecanoyltransferase (Saccharomyces cerevisiae S288c), P14743 D22A,D23A (protein)
chain: T1 sequence (P14743 whole entry) with D22A, D23A
kcat/Km [30]: 4.15 ×10⁴ /M/s
Km [31]: 92.4 µM
kcat [31]: 3.83 s⁻¹
